Measurements taken from US20180346564A1.
Numbering of substitutions follows the chain as printed. In names and notes the source's numbering stands.

T1: phosphorylated peptide (PRHLSNVS(pS)TGSIDMVD) of Example 10 (human)
T1 sequence (peptide, phosphoserine (pS) at peptide position 9): PRHLSNVSSTGSIDMVD

B1: Humanized × [MAPT_H] mAb (Ta1505-VL46_G34T/VH11) IgG4 S228P/Kappa (CX) (antibody, V domains shown)
VH: EVQLVESGGGLVQPGGSLRLSCAASGFTFSSFALNWVRQAPGKGLEWVGHIRSKTNNYATFYAASVKDRFTVSRDDSQNTAYLQMNSLKTEDTATYYCVRRGPRDSWFGYWGQGTLVTVSS
VL: DIVMTQSPLSLPVTLGEPASISCRSSQSIVHSNTNTYLEWYLQKPGQSPQLLIYTVSNRFSGVPDRFSGSGSGTDFTLKISRVEAEDLGVYYCFQGSHLPLTFGGGTKVEIKR
B2: Humanized × [MAPT_H] mAb (Ta1505-VL46_N33Q/VH11) IgG4 S228P/Kappa (CX) (antibody, V domains shown)
VH: B1 VH
VL: B1 VL with N33Q, T34G
B3: Humanized × [MAPT_H] mAb (Ta1505-VL46_N33S/VH11) IgG4 S228P/Kappa (CX) (antibody, V domains shown)
VH: B1 VH
VL: B1 VL with N33S, T34G
B4: Humanized × [MAPT_H] mAb (Ta1505-VL46_N33T/VH11) IgG4 S228P/Kappa (CX) (antibody, V domains shown)
VH: B1 VH
VL: B1 VL with N33T, T34G
B5: Humanized × [MAPT_H] mAb (Ta1505-VL46 S28N/VH11) IgG4 S228P/Kappa (CX) (antibody, V domains shown)
VH: B1 VH
VL: B1 VL with S28N, T34G
B6: Humanized × [MAPT_H] mAb (Ta1505-VL46_N33Q_G34A/VH11) IgG4 S228P/Kappa (CX) (antibody, V domains shown)
VH: B1 VH
VL: B1 VL with N33Q, T34A

target: T1, phosphorylated peptide (PRHLSNVS(pS)TGSIDMVD) of Example 10 (human); test: ELISA, pS413 peptide coated at 1 ug/ml, antibody titrated, goat anti-human-HRP, ABTS, OD405 (Example 10)

EC50 (read off the curve) [mg/L]	Binder
0.01	B1
0.02	B2
0.02	B3
0.01	B4
0.006	B5
0.02	B6
